In PMC9943068 one finds Kd data, which are given here for 2 substances.

In experiment [1] the target is hUSP7 residues 561-1102 (human) (UniProt Q93009). In words: ITC; 20 µM USP7(561-1102) in the cell titrated with 1.2 mM PAF15 at 293 K; 10 mM HEPES pH 7.5, 150 mM NaCl, 0.25 mM TCEP; one-site model.
A further experiment has as its target DNMT1 (Homo sapiens) (UniProt P26358). The following applies: cited from earlier work.
UniProt P26358, sequence (P26358 whole entry): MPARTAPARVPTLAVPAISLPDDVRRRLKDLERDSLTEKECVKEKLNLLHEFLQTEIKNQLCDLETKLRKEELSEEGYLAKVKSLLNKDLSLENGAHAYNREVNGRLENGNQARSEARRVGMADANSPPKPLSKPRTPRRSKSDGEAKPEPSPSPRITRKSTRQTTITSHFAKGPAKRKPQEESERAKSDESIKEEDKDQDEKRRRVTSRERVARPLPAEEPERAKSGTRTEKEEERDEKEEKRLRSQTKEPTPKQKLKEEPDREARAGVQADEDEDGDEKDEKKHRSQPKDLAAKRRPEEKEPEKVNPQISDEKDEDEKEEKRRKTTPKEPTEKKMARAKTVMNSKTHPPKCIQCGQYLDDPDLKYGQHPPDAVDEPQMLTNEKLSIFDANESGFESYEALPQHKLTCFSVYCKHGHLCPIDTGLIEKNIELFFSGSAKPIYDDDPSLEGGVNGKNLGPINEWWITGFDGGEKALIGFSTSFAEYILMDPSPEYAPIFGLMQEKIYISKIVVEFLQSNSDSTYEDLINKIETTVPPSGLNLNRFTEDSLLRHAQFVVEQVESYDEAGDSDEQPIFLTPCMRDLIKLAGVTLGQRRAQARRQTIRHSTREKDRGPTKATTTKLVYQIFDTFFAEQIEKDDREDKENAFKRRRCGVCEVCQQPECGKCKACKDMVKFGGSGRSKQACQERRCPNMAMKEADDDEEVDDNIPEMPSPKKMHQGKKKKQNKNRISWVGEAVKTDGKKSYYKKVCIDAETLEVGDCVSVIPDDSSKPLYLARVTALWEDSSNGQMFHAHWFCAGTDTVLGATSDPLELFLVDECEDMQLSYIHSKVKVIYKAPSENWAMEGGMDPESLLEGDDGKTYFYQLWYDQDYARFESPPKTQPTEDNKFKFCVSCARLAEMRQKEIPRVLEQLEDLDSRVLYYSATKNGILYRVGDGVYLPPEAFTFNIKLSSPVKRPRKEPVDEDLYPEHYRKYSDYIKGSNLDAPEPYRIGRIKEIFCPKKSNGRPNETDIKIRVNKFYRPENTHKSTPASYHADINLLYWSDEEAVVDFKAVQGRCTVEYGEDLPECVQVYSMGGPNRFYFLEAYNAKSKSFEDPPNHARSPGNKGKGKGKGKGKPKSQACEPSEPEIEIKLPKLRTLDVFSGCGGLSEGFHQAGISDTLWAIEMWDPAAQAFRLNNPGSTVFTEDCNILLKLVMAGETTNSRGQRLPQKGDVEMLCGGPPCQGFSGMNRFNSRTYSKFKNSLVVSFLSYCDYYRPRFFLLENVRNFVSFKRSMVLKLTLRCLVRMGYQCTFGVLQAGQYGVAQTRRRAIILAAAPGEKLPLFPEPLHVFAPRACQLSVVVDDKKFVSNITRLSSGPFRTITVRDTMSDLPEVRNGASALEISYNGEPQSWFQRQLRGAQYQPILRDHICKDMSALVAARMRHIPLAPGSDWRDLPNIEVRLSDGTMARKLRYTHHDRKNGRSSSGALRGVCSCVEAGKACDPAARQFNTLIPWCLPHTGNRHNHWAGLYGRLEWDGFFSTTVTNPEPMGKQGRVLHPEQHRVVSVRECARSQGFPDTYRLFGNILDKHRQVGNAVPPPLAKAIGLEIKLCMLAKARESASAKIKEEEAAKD

Turning to “full-length hPAF15 wild-type, C-terminal FLAG tag (from UniProt Q15004 1-111) (natural protein)”, the Kd in experiment [1] was 32.7 µM.

USP7 561-1102 (from UniProt Q93009): the Kd with DNMT1 (Homo sapiens) was 0.6 µM.
